Publication PMC3312907, “Monoclonal Antibodies to Meningococcal Factor H Binding Protein with Overlapping Epitopes and Discordant Functional Activity” (PLoS ONE, 2012)

Key:
[1] = target: recombinant factor H binding protein (fHbp) ID 1 (Neisseria meningitidis (strain MC58)) (UniProt Q9JXV4); assay: ELISA; competitive inhibition: wells coated with 2 µg/ml fHbp ID 1; dilutions of the first mAb together with 1 µg/ml of the second mAb, 37°C, 2 h; detection with subclass-specific (IgG3 or IgG2a) secondary antibody
[2] = target: murine anti-fHbp mAb JAR 1 (IgG3); assay: ELISA; conditions: mAb at 10 µg/ml (highest point of titration); wells coated with 2 µg/ml of wild-type or mutant fHbp; parent: est. 2.4; read off a plot
[3] = target: murine anti-fHbp mAb JAR 5 (IgG2b); assay: ELISA; conditions: mAb at 10 µg/ml (highest point of titration); wells coated with 2 µg/ml of wild-type or mutant fHbp; parent: est. 3.7; read off a plot
[4] = target: murine anti-fHbp mAb502 (IgG2a); assay: ELISA; conditions: wells coated with 2 µg/ml of wild-type or mutant fHbp, read off a plot
[5] = target: T1, fHbp ID 1 on live bacteria of N. meningitidis group B strain H44/76 (Neisseria meningitidis (endogenous in …, UniProt Q9JXV4)); assay: flow cytometry on cells; as a6, for the anti-fHbp mAb added at 2 or 50 µg/ml for 30 min at room temperature to live bacteria; read-out is bound fH; conditions: one partner purified
T1 construct: source: endogenous, live bacteria of group B strain H44/76

[6] = target: T2, recombinant factor H binding protein (fHbp) ID 1 (Neisseria meningitidis (strain MC58), UniProt Q9JXV4); assay: ELISA; wells coated with 2 µg/ml recombinant fHbp in PBS overnight at 4°C; dilutions of mAb overnight at 4°C; bound mAb detected with anti-mouse or anti-human IgG (Fc specific)-alkaline phosphatase (legend of Figure 5: anti-human kappa light chain); conditions: both partners purified
T2 construct: also called wild-type (WT) fHbp ID 1; rfHbp; source: E. coli (pET21b), purified (Ni-NTA agarose)

[7] = mAb at 10 µg/ml (highest point of titration), parent: est. 3.6

murine anti-fHbp mAb JAR 1 (IgG3) (antibody)
percent inhibition of mAb502 binding to fHbp [1]: > 90%

recombinant factor H binding protein (fHbp) ID 1 (from UniProt Q9JXV4) D142A
response [2]: 2.3 OD 405nm | response [3]: 3.6 OD 405nm | response [4, 7]: 3.5 OD 405nm | response ([4]; mAb at about 0.08 µg/ml (point read from the log x axis, est.), parent: est. 3.7): 1.4 OD 405nm

recombinant factor H binding protein (fHbp) ID 1 (from UniProt Q9JXV4) K143A
response [2]: 1.3 OD 405nm | response [3]: 3.8 OD 405nm | response [4, 7]: 3.6 OD 405nm

recombinant factor H binding protein (fHbp) ID 1 (from UniProt Q9JXV4) R204A
response [2]: 0.15 OD 405nm | response [3]: 3.4 OD 405nm | response [4, 7]: 0.3 OD 405nm

recombinant factor H binding protein (fHbp) ID 1 (from UniProt Q9JXV4) R204H
response [2]: 2.2 OD 405nm | response [3]: 3.6 OD 405nm | response [4, 7]: 0.3 OD 405nm

B1: chimeric human IgG1 mouse anti-fHbp JAR 1 mAb (antibody, V domains shown)
VH: QVQLQQPGTELVMPGASVKLSCKASGYTFTNYWMHWVKQRPGQGLEWIGEIDPSDNYTKYNQKFKGKATLTVHTSSTTAYIQLSSLTSEDSAVYYCARGEVTTYLDYWGQGTTLIVSS
VL: DILMTQSPSSLTVSAGEKVTMSCKSSQSLLASDNQNNFLAWHQQKPGQSPKMLIIWASTRVSGVPDRFIGSGSGTDFTLTINSVQAEDLAVYYCQQSYSAPLTFGAGTKLELQ
notes: also called chimeric JAR 1; chimeric human IgG1 JAR 1; source: transfected CHO cells, serum-free medium, purified from supernatant (HiTrap protein G)
binding result [5]: binds | binding result [6]: binds

B2: chimeric human IgG1 mouse anti-fHbp mAb502 (antibody, V domains shown)
VH: EVQLQESGPGLAKPSQTLSLTCSVTGYSITSDFWNWIRKFPGNKLEYMGYISYSGSTDYNPSLKSRISITRDTSKNQYYLQLNSVTAEDTATYYCARYFGSSYAMDHWGQGTSVTVSS
VL: DIQMTQSPASLSASVGETVTITCRASGNIHNYLAWYQQKQGKSPQLLVYTAKTLAEGVPSRFSGSGSGTQFSLKINSLQPEDFGSYYCQHFWSTPWTFGGGTKLEIK
notes: also called chimeric mAb502; chimeric human IgG1 mAb502; source: transfected CHO cells, serum-free medium, purified from supernatant (HiTrap protein G)
binding result [5]: binds | binding result [6]: binds
